Consider one molecule from publication PMC8597827, “The effect of S427F mutation on RXRα activity depends on its dimeric partner†”.

This series deals with RXRα WT (human, UniProt P19793 1-462). In words: EMSA; no ligand; two shifts; competed by 5x and 25x unlabeled DR1; 10 mM Tris HCl pH 8.0, 150 mM KCl, 0.5 mM EDTA, 0.1% Triton X-100, 12.5% glycerol, 0.2 mM DTT, 1 ug poly(dI-dC), 100 pmol probe in 20 uL; 10 min RT then 5 min 37 C; 5% PAGE in 0.5x TBE at 4 C. The settings on record: protein: recombinant; chain copies: 2; blunt.
Chain of RXRα WT (P19793 whole entry): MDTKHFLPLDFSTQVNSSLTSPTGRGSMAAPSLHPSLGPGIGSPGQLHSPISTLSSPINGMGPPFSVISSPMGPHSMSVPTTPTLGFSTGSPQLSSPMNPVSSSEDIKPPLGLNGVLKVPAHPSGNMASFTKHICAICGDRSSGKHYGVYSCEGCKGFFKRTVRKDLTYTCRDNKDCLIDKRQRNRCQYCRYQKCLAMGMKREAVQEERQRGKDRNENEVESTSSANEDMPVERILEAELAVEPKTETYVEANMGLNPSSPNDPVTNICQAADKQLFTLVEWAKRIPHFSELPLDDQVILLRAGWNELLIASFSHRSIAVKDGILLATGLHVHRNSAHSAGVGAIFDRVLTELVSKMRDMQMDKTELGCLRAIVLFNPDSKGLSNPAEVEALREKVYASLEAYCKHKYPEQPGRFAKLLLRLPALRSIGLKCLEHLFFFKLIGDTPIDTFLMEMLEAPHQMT

B1: DR1 (dsDNA)
DNA 1: TCGAGGGTAGGGGTCAGAGGTCACTCGTCGA
DNA 2: TCGACGAGTGACCTCTGACCCCTACCCTCGA
Take B1: the binding result is on record as “binds”.
